{"source": "the DeepSol protein solubility set"}
{"test": "soluble on expression in E. coli; label from the status in PepcDB or PDB records"}
{"sequence": "GPGSMSAIKRSLNVGVVGMGNMGIPITRNLAFKARSAMYLQIHSRTLSKARQVCDDMSADGATCAMRIHDRYSTMTKWCDVILLTLAHRAASRKVLLEDSEALVTNARPGQIIVDHTTVDMELSRECAHEAERRGAVFLDAPMSGSPKQAFNNQLVLMVGGPAEQVQRVSPIFRMYADHIHHMGANGSGTAAKLLSQALVASHNAAAAEAMTIANRLGIEDYQKLIQVLDASWGSSTMLRRNAPTMQDLVRNPDKLAPSSGASIDNLLEDLALLDASLPKIEKGDNGNGGREVEEERFPVLDASLRMLGAAVESGMGDRDMAAVIHYIPAAAAMEKEEGVRVQPRGLTSGAFLDRNATGKVNSGPAAAAGAAVAASSPPTPAEIEMDPGSLADSLSAAESSSNGKGSTTQAASIAEPLTTASSQQPPAFTPEDFY", "soluble on expression in E. coli": "soluble"}
{"sequence": "AYPSFEAYSNYKVDRTDLETFLDKQKEVSLYYLLQNIAYPEGQFNNGVPGTVIASPSTSNPDYYYQWTRDSAITFLTVLSELEDNNFNTTLAKAVEYYINTSYNLQRTSNPSGSFDDENHKGLGEPKFNTDGSAYTGAWGRPQNDGPALRAYAISRYLNDVNSLNEGKLVLTDSGDINFSSTEDIYKNIIKPDLEYVIGYWDSTGFDLWEENQGRHFFTSLVQQKALAYAVDIAKSFDDGDFANTLSSTASTLESYLSGSDGGFVNTDVNHIVENPDLLQQNSRQGLDSATYIGPLLTHDIGESSSTPFDVDNEYVLQSYYLLLEDNKDRYSVNSAYSAGAAIGRYPEDVYNGDGSSEGNPWFLATAYAAQVPYKLAYDAKSASNDITINKINYDFFNKYIVDLSTINSAYQSSDSVTIKSGSDEFNTVADNLVTFGDSFLQVILDHINDDGSLNEQLNRYTGYSTGAYSLTWSSGALLEAIRLRNKVKALA", "soluble on expression in E. coli": "soluble"}
{"sequence": "MTAHPQEDHYKYKKVISIGVVSELTGLSQRQIRYYEERKLVFPDRSRGIRKYSFADVEQLMKIANQREEGVSTWEIRQEMTKELRERMLKGQMNAHFRRRS", "soluble on expression in E. coli": "not soluble"}
{"sequence": "STHSELMEKFLTDYLNDLQGRNDDDASGTWDFYGSSVCEPDDESGYDVLANPPGPEDQDDDDDAYSDVFEFEFSETPLLPCYNIQVSVAQGPRNWLLLSDVLKKLKMSSRIFRCNFPNVEIVTIAEAEFYRQVSASLLFSCSKDLEAFNPESKELLDLVEFTNEIQTLLGSSVEWLHPSDLASDNYW", "soluble on expression in E. coli": "soluble"}
{"sequence": "MFSRPGLPVEYLQVPSASMGRDIKVQFQGGGPHAVYLLDGLRAQDDYNGWDINTPAFEEYYQSGLSVIMPVGGQSSFYTDWYQPSQSNGQNYTYKWETFLTREMPAWLQANKGVSPTGNAAVGLSMSGGSALILAAYYPQQFPYAASLSGFLNPSEGWWPTLIGLAMNDSGGYNANSMWGPSSDPAWKRNDPMVQIPRLVANNTRIWVYCGNGTPSDLGGDNIPAKFLEGLTLRTNQTFRDTYAADGGRNGVFNFPPNGTHSWPYWNEQLVAMKADIQHVLNGATPPAAPAAPAALEHHHHHH", "soluble on expression in E. coli": "soluble"}
{"sequence": "CTRAVYIGPDHMVVTGRTMDWKEDIMSNIYVFPRGIQRAGYNKENAVKWTSKYGSVIATGYDIGTCDGMNEKGLVASLLFLPESVFDRPGDTRPVMGISIWTQYVLDNFATVHEAVEELKKESFRIDAPHMPNGSASTLHLAITDETGNTAVLEYLDGNLSIHEGKEFQVMTNSPRYDYQLAINDYWKEVGGLQMLPGTNRSSDRFVRASFYIHAIPQTPDAKIAVPSVLSVMRNVSVPFGITTPDKPHISSTRWRSVSDQKNKIYYFESVMTPNLFWLDLKKIDFSPKAGIKKLPLTNGKIY", "soluble on expression in E. coli": "not soluble"}
{"sequence": "MGSDKIHHHHHHMLLIDKLSNHENFTNTEQRIADYILKNITDIPPMNIDKLSKVTYTSHSAVVRLTKKLGFEGFKDFKVAISEAVYSQTTNMNSVDANFPFDSNDSVSTISKKVAELSVESIQRTFAQLDERLIEEAANTIAKSERIFLFAQGDSQIRARSFQNKLVKLNRFAILGEEYSDEDWTAANLTKKDCAIFISYGGRISQYERMLTHFSENKIPSVVLTGNQKSPLIRLAQTAIVTTQNEYDFLKISTFSSQITFEYLLDTIFSVIYAKEYQQNIINLKNKFNLIQRGTLSEGLAKEHDSK", "soluble on expression in E. coli": "not soluble"}
{"sequence": "MEQFPNSLSITLLGSAGGAAKAVLAILNQAIANEKDPIYEVLKNAKFHLVDIKQKDRTYYDELFSNLKGQLYLYEINLQNVVEFKQHLKEKRTSVVIDVSGADTIRVLSCCNELGICYINSALENEAVDQDDSLIGFQLTERYTRFEKEKEKFTNTKAIIGSGMNPGVVQWMVVELMKERPNERPRACYIVEHDTSFLNDTALIKPHTLYASWAVERFLDEAIWSYPMYMSHHRPLYFYEDVYASEYKVKLGEKEFYGCLMPHEEVLILGKNFNMEVGFLYRINEYTTNIIRQNLDQVEDLWNWNRKVFNPAEEEVAGEDLVGVLLVYENSETYMYNVMNSSQVFRKYKTNATYFQVGCGIYAGLSSLLLDQFEQGAYYVEELLLNTESKYGEYLNLYMKDFVIGHNNFTDGLLHDRVRWM", "soluble on expression in E. coli": "not soluble"}
{"sequence": "MGSDKIHHHHHHACSWVDDDRSDCPTGCWLKLSYTYNMLNVDAVTTQVKDVTLFILDQEGNYIVREEVDSLTFHQNECTIQVPSLPQGDYTFLVWAGLADSLYRHTPTSLTLLRNEAGEQSEKLSSLFHGRLDNVHISGEYQVLALSLTKNTNILSCILQSQSAAPLDTDDFRLELTARNGCMDHRNTPTDSVSTCYLPFMQESANLEDIQVVHAGMNTLRLMENDDTRLRLIHQPDGKEIFDIPLTPYLLLSRNVETTYMPPQEYLDRQDRYNLIFFLSPTNDPQKPYICLQMQVNGWIIRINDAELDK", "soluble on expression in E. coli": "not soluble"}
{"sequence": "MSLGVNFQPVAFTGRIDQSQREKKRITIPDVMKLVEEQTGGEIPCNAWYPVSFVVPISRFLSAMRNIPIPELTAHPHCGAGTYVFYEEGHFIPITNFFDVESFIELLKEITPEINGRVSRVLSLAKVIKQVPKFIDEKKGPKSVNTTRMILDLLKKGDMENTSRFHRNTLFLGTMHFQDLYNIDLERVKKCGVHYATPDGRIIPFCTYNEGHHHHHH", "soluble on expression in E. coli": "not soluble"}
{"sequence": "MSLGADRSAPMTARIDQLLLERLKSAGVEPAPAADDGEFLRRAYLDLSGTIPPVAITRDYLADSSPAKRRQLIERLLASPAFASHLASTWREIILKPTDDFQQLQNQFALQAWLREQFSENARYDRIVEQFITASSEQDGPVYFYDALDLKPEQLAAETSRIFLGLHIQCAECHDHPFDDWKQRDFWGYAAFFARVAKRDSAMGRISLVDQEMGEVKIPESEETVAPLYPGGSAPSDRFGGTRRQKLAVWMVARDNPYTARRAVNWAWAHLFGRGLVEPVDDLSPLNAPSHPALMEELTQYFIDSGYDLRQLLRTLAMTDAYARSSQNVDGQRPELFANMAIKSLSPEQLYDAILRLGLIRETVGDLSSQAPQPFDRSQQRLQFVARMRTVSLDRTDFETGAPQALALMNGPPVSLATAPETSGFLKSLEAPFFSDEQRVELIALAAYSRQPTAEERQRFSEYLATASPNEKKQALGDLLWAVAASAEFMLNEGHHHHHH", "soluble on expression in E. coli": "not soluble"}
{"sequence": "MIRMPLATASLLAIAISLAGCGEGKDKAAAPAPAAAPAAPAAAPAAPAPAPAAAAQTDDAAAKAVVANYANMVSAVFDDAQGAAKKLSTAVDAFLAKPNDETLKAARDAWVAARVPYMQSEVFRFGNTIIDDWEGQVNAWPLDEGLIDYVAKDYQHALGNPGATANIIANTEIQVGEDKVDVKEITSEKLASLNELGGSEANVATGYHAIEFLLWGQDLNGTGPGAGARPASDYLEGAGATGGHNDRRRTYLKAVTDLLVSDLEEMAGNWKAGVADNYRATLEAESGESGLRKMLFGMGSLSLGELAGERMKVALEANSSEDEHDCFSDNTHNSHFYNGKGIRNVYLGEYTRTDGSKVSGPSLSSLVAKVDPATDATLRADLDDTQAKLQAIVDHANKGEHFDQLIGAGNTAGNQVVRDAIAALVKQTGAIEQAAGKLGITDLNPDNADHEF", "soluble on expression in E. coli": "soluble"}
{"sequence": "GPGSMSHSSLKRAPEITPQAATDKDSILCRSAHAKPLSFTTAPRDSAMVKLDVTLLRFMEDEDFRVLTALEMAMRNHDVAPTALVERIAQLPHGGCRKRLNNLLKHKMIHHENTMYDGYAMKYGAYDYLALRTLSKRGTCTGVGHRIGCGKESDIILVRDEAGHECVLKLQRLGRCSFRSVARNRDYKGNGRARHGESWFYLSRLASQKEYSFMKMLYDEGFPVPKPIDQNRHALLMELVPGTLLNNITELGDASKVYRRALELMVKLAESGLIHGDFNEFNLMITDDQRVIMIDFPQMISINHPNASELFDRDVQNLANFFHRRFKVDTTWFPSLEKDVVRKNELDKQVYASGHFTRKQQEDLERLMLEGFQRGEKSDDEAGSQARDSDASDDDGDENALQRSDIGNADVDAGVAGKFMTIPGFARGGESDEEREDSSDDDASEGRLLDEAMGAARERRQGEFYAHNADRNANFFPDGKINEDHVKHQIRKSIRRKDNHDFNRHLHRNVQKGRQKQKIQRQLKSSNGGGFFD", "soluble on expression in E. coli": "not soluble"}
